Assay results as given in the nanobody polyreactivity screen of Harvey et al. (2022).

Experiment: yeast display, Sf9 membrane polyspecificity reagent, FACS + sequencing; frameworks hold sequencing errors
How it was run: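 Nanobodies came from a synthetic yeast display library in Saccharomyces cerevisiae BJ5465, induced with galactose for 36–48 hours and stained for 1 hour at 4 °C with 10% biotinylated, detergent-solubilized Sf9 membrane reagent. Cells were enriched on streptavidin microbeads and then FACS-sorted, with low and high (top ~1%) gates set on anti-HA fluorescence for expression and streptavidin fluorescence for reagent binding. Each polyreactivity label reflects the gate a clone came from. Genes were amplified by colony PCR, sequenced by MiSeq 2 × 250 and filtered by CDR length.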

| Sequence | polyreactivity (PSR sort gate) |
| --- | --- |
| QVQLVESGGGLVQAGGSLRISCAASGITLYFYAMGWYRQAPGKERELVAGISGSVGSTHYADSVKGRFSISRDNAKNTVYLQMNSLKPEDTAVYYCAARALTWSRVPRYNYWGQGTQVTVSS | high polyreactivity |
| QVQLVESGGGLVQAGGSLRISCAASGLTFEVYAMGWYRQAPGIERELVATITYSGGITYYADSVKGRFTISRDNAKNTVYLQMNSLKPEDTAVYYRIGFGGDYDYWGQGTQVTVSS | low polyreactivity |
| QVQLVESGGGLVQAGGSLRISCAASGLTFGKYAMGWYRQEPGKERELVAAISWSVTSTYYADSVKGRFTISRDNAKNTVYLQMNSLKPEDTAVYYCAAEIIKLAYRVAYYYWGQGTQVTVSS | high polyreactivity |
| QVQLVESGGGLVQAGGSLRISCAASGLTSVTYAMGWYRQAPGKERELVAAITSRAGSTYYADSVKGRFTISRDNAKNTVYLQMNSLKPEDTAVYYCAKDIIRKVYAGYVGRYDYWGQGTQVTVSS | low polyreactivity |
| QVQLVESGGGLVQAGGSLRISCAASGNIFGIYTMGWYRQAPGKEREFFAVISLSGTSTYYADSVKGRFTISRDNAKNTVYLQMNSLKPEDTAVYYCNARTPHNKGRRRAYDYWGLGTQVTVSS | high polyreactivity |
| QVQLVESGGGLVQAGGSLRISCAASGNIFPYYAMGWYRQAPGKERELVATITRGGRTNYADSVKGRFTISRDNAKNTVYLQMNSLKPEDTAVYYCASYSYTLTYRFDYWGQGTQVTVSS | low polyreactivity |
| QVQLVESGGGLVQAGGSLRISCAASGNIFSVNAMGWYRQAPGKEREFVAAISGSGGSTYYADSVKGRFTISRDNAKNTVYLQMNSLKPEDTAVYYCAKRWYHPSSLPRYVFRGVDYWGQGTQVTVSS | high polyreactivity |
| QVQLVESGGGLVQAGGSLRISCAASGRIFANYAMGWYRQAPGKEMELVAAITTNGGGTYYADSVKVRFTISRDNAKNTVYLQMKSLIPEDTAVYYCIAVKQRSSIFDYWGQGTQLTVSS | low polyreactivity |
| QVQLVESGGGLVQAGGSLRISCAASGRIFNINAMGWYRPAPGKERELVAAITWRSGSTYYADSVKGRFTISRDNAKNTVYLHMNSLKPEDTAVYYCAADFSQTRRPIRFYYWGQGSQVTVSS | high polyreactivity |
| QVQLVESGGGLVQAGGSLRISCAASGRIFSFYAMGWYRQAPGKERELVAAISYSDGSTYYADSVKGRFTISRDNAKNTVYLQMNSLKPEDTAVYYCAKYGYDHDYNYWGQGTQVTVSS | low polyreactivity |
| QVQLVESGGGLVQAGGSLRISCAASGRIFSGNAMGWYRQAPGKERELVAAISSGGSTYYADSVKGRFTISRYNAMNTVFLQMNILKPEDTAVYYCKKSRGRKWRGNYSVVKLLMGYWGQGSQVTVSS | low polyreactivity |
| QVQLVESGGGLVQAGGSLRISCAASGRIFSYNDMGWYRPAPGKERELVAAITGGGSTNYADSVKGRFTISRDNAKNTVYLQMNSLKPEDTAVYYCAARSWSDKYWGQGTQVTVSS | high polyreactivity |
| QVQLVESGGGLVQAGGSLRISCAASGRIFVSNAAMGWYIQAPGKESELVAAITSRGGRTTYADSVKGRFTSSRDNAKNTVYLQMNSLKPEDTAVYYCAARVRGYDWVRGSPFHHNYWGQGTQVTVSS | high polyreactivity |
| QVQLVESGGGLVQAGGSLRISCAASGRIFWTYAMGSYRQAPGKERELVAAITWRGGSTSYADSVKGRFTISRDNAKNTVYLQMNSLKPEDTAVYYCAADTYSYLRGTYEYDYWGQGTQVTVSS | high polyreactivity |
| QVQLVESGGGLVQAGGSLRISCAASGRIFYCYVMGWYRQAPGKERELVAAINLSGTSTYYADSVKGRFTISRDNAKNTVYLQMNSLKPEDTAVYYCAADQVGWTYDYWGQGTQVTVSS | low polyreactivity |
| QVQLVESGGGLVQAGGSLRISCAASGRILGKYAMGWYRQAPGKESELVAAIRLRGGSTYYADSVKGRFTISRDNEKNSVYLQMNSLKPEDTAVYYCAARYWDRSQAYNDWGQGTQVTVSS | high polyreactivity |
| QVQLVESGGGLVQAGGSLRISCAASGRISVFNVMGWYIQAPGKERELVAAITSGGSTKYADSVKGRFTISRDNAKNTVYLQMNSLKPEDTAVYYCAALYQFHGKIWDGDYWGQGTQVTVSS | low polyreactivity |
| QVQLVESGGGLVQAGGSLRISCAASGRIYYRYAMGWYRQAPGKERELVASISGSGGRTYYADSVKGRFTISRDNAKNTVYLQMNSLKPEDTAVYYCAARIRPSYDWGQGTQVTVSS | high polyreactivity |
| QVQLVESGGGLVQAGGSLRISCAASGRNYSYYAMGWYREAPGKERELVAAITYSGGSTYYADSVKGRFTITRDNAKNTVYLQMNSLKPEDTAVYYCAAGLSIYYWGQGTQVTVSS | low polyreactivity |
| QVQLVESGGGLVQAGGSLRISCAASGRSFGVNAMGWYRQAPGKERELVAVISSGGSTYYADSVKVRFTISRDNAKNTVYLQMNSLKPEDTAVYYCNAVFGRWFPYNLSDYWGQGTQVTVSS | low polyreactivity |
| QVQLVESGGGLVQAGGSLRISCAASGRTFALNAMGWYRQAPGKERELVAAISSGGSTYYADSVKGRFTISRDNAKNTVYLQMNSLKPEDTAVYYCAKTSFKYRWSYPVISMDYWGQGTQVTVSS | high polyreactivity |
| QVQLVESGGGLVQAGGSLRISCAASGRTFDHYAMGWYRPAPGKERELVAAISFSGGSTYYADSVKGRLTISRDNAKNTVYLQMNRLKPEDTAVYYCAADYAYWLSGYDYWGQGTQVTVSS | low polyreactivity |

| Sequence | polyreactivity (PSR sort gate) |
| --- | --- |
| QVQLVESGGGLVQAGGSLRISCAASGRTFDYNAMGWYRQAPGKERELVAAIRFGGGSTYYADSVKGRFTISRDNAKNTVYFQMNSLKPEDTAVYYCNASPLWIGWEIVPVGSSHYDYWGQGTQVTVSS | low polyreactivity |
| QVQLVESGGGLVQAGGSLRISCAASGRTFFFNAMGWYRQAPGKERELVAAISRTGRTNYADSVKGRFTISRDHAKNTVYLQMNSLKPEDTAVYYCAKTSYYLFGYWGHGTQVTVSS | high polyreactivity |
| QVQLVESGGGLVQAGGSLRISCAASGRTFGANAMGWYRQAPGKERELVAGITSSGGSTSYADSVKGRFTISRDNAKNTVYLQMNSLKPEDTAVYYCAKDVYQHIFDVILGGYDSWGLGTQVTVSS | low polyreactivity |
| QVQLVESGGGLVQAGGSLRISCAASGRTFGIYAMGWYIKGPGKERELVADITIGGSTFYADSVKGRFTISRDNAKNTVYLPMNSLKPEDTAVYYCYDDVVVQYYFTYYRFFTYDYWGQGTQVTVSS | low polyreactivity |
| QVQLVESGGGLVQAGGSLRISCAASGRTFGYYGMGWSRQAPGKERELVAGITSRGGSTYYADSVKGRFTISRDNAKNTVYLQMNSLKPEDTAVYYCNAQYARKYGFWTAYDYWGQGTQVTVSS | high polyreactivity |
| QVQLVESGGGLVQAGGSLRISCAASGRTFKNYSMGWYRQAPGKERELVAAITSGGITNYADSVKGRFTISRDNAKNTVYLQMNRLKPEDTAVYYCNTRRGWRDFDYWGQGTQVTVSS | low polyreactivity |
| QVQLVESGGGLVQAGGSLRISCAASGRTFRPYPMGWYRQAPGKDRELVAAIDSSGTSTYYADSVKGRFTISRDNAKNTVYLQMNSLKPEDTAVYYCAKAWPDHWYSRYDYWGQGTQVTVSS | low polyreactivity |
| QVQLVESGGGLVQAGGSLRISCAASGRTFVGNAMGWYRQAPGKERELVAAMTLSDGSTYYADSVKGRFTISRDIAMNTVYLQMNSLKPEDTAVYYCNAGDGPDEEYDYWGQVTQVTVSS | low polyreactivity |
| QVQLVESGGGLVQAGGSLRISCAASGRTFYANAMGWYRQAPGKERELVAAISSNGGSTYYADSVKGRFTISRDNAKNTVYLQMNSLKPEDTAVYYCAVVSRYIAWRKYDYCGQGTQVTVSS | high polyreactivity |
| QVQLVESGGGLVQAGGSLRISCAASGRTFYGYTMGWDRQAPGKERELVAAISRNGASTFYADSVKGRFTISRDNAKNTVYLQMNSLKPEDTAVYYCNARSWRHTDTSFEYWGQGTQVTVSS | high polyreactivity |
| QVQLVESGGGLVQAGGSLRISCAASGRTFYINAMGWYRQAPGKVWELVASISRSGGGTYYADSVKGRFTISRDNAKNNVYLQMNCLKPEDTAVYYCAAYSWSYSGYNFWGQGTQVTVSS | high polyreactivity |
| QVQLVESGGGLVQAGGSLRISCAASGRTFYQYDMGWYRQAPGKERELVAAIDWSGGSTYYADSVKGRFTISRDNAKNTVYLQMNSLKPEDTAVYYCNADAYPHPVVGYDYWGQGTQVTVSS | low polyreactivity |
| QVQLVESGGGLVQAGGSLRISCAASGSIFATYAMGWYRQAPGKERELVAAISWSSGSTYYADSVKGRFTISRDNAKNTVYLQMNSLNPEDTAVYYCNKDWLAYDSLRVTSTIAFDYWGQGSQVTVSS | low polyreactivity |
| QVQLVESGGGLVQAGGSLRISCAASGSIFDTNPMGWYRQAPGKERELVAAITSSGASTYYADSVKGRFTISRDNAKNTVYLQMNSLKPEDTAVYYCAADGAVDGGYWGQGTQVTVSS | low polyreactivity |
| QVQLVESGGGLVQAGGSLRISCAASGSIFGGYAMGWYRQAPGKERELVAAISSGGSTYYADSVKGRFTISRDNAKNTVYLQMNSLKPEDTAVYYCATSTYAYRRNSYYYTRPRFGYWGQGTQVTVSS | high polyreactivity |
| QVQLVESGGGLVQAGGSLRISCAASGSIFGYYAMGWYRQAPGKERELVAAITRSGGSTYYADSVKGRFTISRDNAKNTVYLQMNSLKPEDTAVYYCAAYYGHLYYTFDYWGQGTQVTVSS | low polyreactivity |
| QVQLVESGGGLVQAGGSLRISCAASGSIFHDNAMGWYRQAPGKERELVAASTTSGGNTYYADSVKGRFTISRDNAKNTVYLLMNSLKPEDTAVYYCAAGQSVFASWLDNGWSAYTYYYWGQGTQVTVSS | low polyreactivity |
| QVQLVESGGGLVQAGGSLRISCAASGSIFLLYTMGWYRQAPGKEREMVATITSSGGSTYYADSVKGRFTISRDNAKNTVYLHMNSLKPEDTAVYDCNAVGSTWGSFVRYGAQYDYWGQGTEVTVSS | low polyreactivity |
| QVQLVESGGGLVQAGGSLRISCAASGSIFQFNAMGWSRQAPGKERELVASISASGGSTYYADSVKGRFTISRDNAKNTVYLQMNSLKPEDTAVYYCAADFIRSWFIWRGSFDYWGLGTQVTVSS | low polyreactivity |
| QVQLVESGGGLVQAGGSLRISCAASGSIFQGYAMGWYRQAPGKERELVATITWSGGSTYYADSVTGRFTISRDNAKNTVYLQMNSLKPEETAVYYCNADSNGYYLWNYYGMYDYWGQGTEVTVSS | low polyreactivity |
| QVQLVESGGGLVQAGGSLRISCAASGSIFRRNAMGWYRQAPGKERELVATITSDGSTDYADSVKGRFTISRDNAKYTVYLQMNRLKPEDTVYYCAAGRTPYWHATFGYWGQGTQVTVSS | low polyreactivity |
